B1: OsVP1 promoter V3 probe (dsDNA)
DNA 1: CGGTCAAAACCAGCACGCGCCGAAATCCCGTACTTCCCACTGACACGTAGGCCCCACTGTCATTGACCG
DNA 2: CGGTCAATGACAGTGGGGCCTACGTGTCAGTGGGAAGTACGGGATTTCGGCGCGTGCTGGTTTTGACCG
B2: OsABF1 promoter A1 probe (dsDNA)
DNA 1: AGCGTTAAAGCCATATGTTAAGAACGCGTTGACGAGAAGCTCGAGTTTGAGGTTATGGCC
DNA 2: GGCCATAACCTCAAACTCGAGCTTCTCGTCAACGCGTTCTTAACATATGGCTTTAACGCT
B3: OsVP1 promoter V1 probe (dsDNA)
DNA 1: TCAACCTACCATATCGCTCAAATGATTGTTGACCTGTAACACCCAACGACCTTTATTTAC
DNA 2: GTAAATAAAGGTCGTTGGGTGTTACAGGTCAACAATCATTTGAGCGATATGGTAGGTTGA

target: OsWRKY29-MBP (Oryza sativa (rice; cv. Hwayoung?), UniProt Q6IEQ2 1-288); assay: EMSA; unlabeled probe competes dose-dependently; LightShift Chemiluminescent EMSA kit binding buffer, 1 ug protein in 20 ul, room temperature, 30 min; 6.5% native PAGE, 0.5x TBE; salt and pH not stated; settings: protein: recombinant; tags: MBP (pMAL-c2x fusion); blunt
Sequence (Q6IEQ2 entry or part of it): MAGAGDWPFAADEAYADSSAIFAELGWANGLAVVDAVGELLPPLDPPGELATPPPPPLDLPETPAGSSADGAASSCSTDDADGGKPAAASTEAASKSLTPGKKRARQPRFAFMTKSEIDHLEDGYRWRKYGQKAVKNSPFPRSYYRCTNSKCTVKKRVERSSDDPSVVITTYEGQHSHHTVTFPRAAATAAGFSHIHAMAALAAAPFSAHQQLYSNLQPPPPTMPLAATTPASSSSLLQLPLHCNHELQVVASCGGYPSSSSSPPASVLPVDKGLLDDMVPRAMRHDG

Binding result, binds:
B1
B2
B3

From PMC7268104, “WRKY Transcription Factor OsWRKY29 Represses Seed Dormancy in Rice by Weakening Abscisic Acid Response”
